{
  "source": "paper PMC2932838",
  "about": "(Biochemistry, 2010)",
  "binders": {"B1": {"name": "Fibrin-derived D-D fragment (domain or fragment)", "chain 1": "VSEDLRSRIEVLKRKVIEKVQHIQLLQKNVRAQLVDMKRLEVDIDIKIRSCRGSCSRALAREVDLKDYEDQQKQLEQVIAKDLLPSR", "chain 2": "DNENVVNEYSSELEKHQLYIDETVNSNIPTNLRVLRSILENLRSKIQKLESDVSAQMEYCRTPCTVSCNIPVVSGKECEEIIRKGGETSEMYLIQPDSSVKPYRVYCDMNTENGGWTVIQNRQDGSVDFGRKWDPYKQGFGNVATNTDGKNYCGLPGEYWLGNDKISQLTRMGPTELLIEMEDWKGDKVKAHYGGFTVQNEANKYQISVNKYRGTAGNALMDGASQLMGENRTMTIHNGMFFSTYDRDNDGWLTSDPRKQCSKEDGGGWWYNRCHAANPNGRYYWGGQYTWDMAKHGTDDGVVWMNWKGSWYSMRKMSMKIRPFFPQQ", "chain 3": "KMLEEIMKYEASILTHDSSIRYLQEIYNSNNQKIVNLKEKVAQLEAQCQEPCKDTVQIHDITGKDCQDIANKGAKQSGLYFIKPLKANQQFLVYCEIDGSGNGWTVFQKRLDGSVDFKKNWIQYKEGFGHLSPTGTTEFWLGNEKIHLISTQSAIPYALRVELEDWNGRTSTADYAMFKVGPEADKYRLTYAYFAGGDAGDAFDGFDFGDDPSDKFFTSHNGMQFSTWDNDNDKFEGNCAEQDGSGWWMNKCHAGHLNGVYYQGGTYSKASTPNGYDNGIIWATWKTRWYSMKKTTMKIIPFNRLTIGEGQQHHLGGAK", "modifications": "covalent γ-γ cross-linking between the D regions"}},
  "assay_in_all_cases": "ELISA",
  "key": {"[1]": {"biological_target": "T1, Biotinylated human α2-antiplasmin (Asn-α2-AP form) (human, UniProt P08697 40-491, biotin (EZ-Link Sulfo-NHS-Biotinylation Kit), sites not stated)", "T1 sequence (looked up)": "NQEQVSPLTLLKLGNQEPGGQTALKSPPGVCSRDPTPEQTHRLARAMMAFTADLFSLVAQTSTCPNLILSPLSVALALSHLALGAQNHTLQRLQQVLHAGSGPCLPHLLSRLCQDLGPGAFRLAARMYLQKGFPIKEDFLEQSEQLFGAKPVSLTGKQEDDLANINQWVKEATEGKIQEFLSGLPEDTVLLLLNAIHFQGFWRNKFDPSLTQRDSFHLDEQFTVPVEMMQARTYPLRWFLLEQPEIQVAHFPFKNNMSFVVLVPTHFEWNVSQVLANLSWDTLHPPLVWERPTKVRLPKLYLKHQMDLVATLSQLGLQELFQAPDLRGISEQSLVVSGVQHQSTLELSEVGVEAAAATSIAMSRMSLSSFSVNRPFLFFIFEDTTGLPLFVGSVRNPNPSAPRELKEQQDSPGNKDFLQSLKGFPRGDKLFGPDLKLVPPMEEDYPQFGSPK"}, "[2]": {"biological_target": "T1, Biotinylated human α2-antiplasmin …", "remark": "listed apart in the source"}, "[3]": {"biological_target": "T1, Biotinylated human α2-antiplasmin …", "remark": "listed apart in the source"}, "[4]": {"biological_target": "T1, Biotinylated human α2-antiplasmin …", "remark": "listed apart in the source"}},
  "note": "Where two headings read alike, the source gives them in different places.",
  "data": [
    {"binder": "B1", "values": [
      {"measurement": "Kd", "setting": "[1]", "result": 98, "unit": "nM"},
      {"measurement": "Kd", "setting": "[2]", "result": 105, "unit": "nM"},
      {"measurement": "Kd", "setting": "[3]", "result": 5.5, "unit": "nM"},
      {"measurement": "Kd", "setting": "[4]", "result": 94, "unit": "nM"}
    ]}
  ]
}
